Patent US20240101668A1 (WUGEN, published 2024)

Columns and labels:
[1] = target: T1, huFLT3-T227 stably expressed on Ramos cells (human, UniProt P36888 27-993); experiment: FACS on cells
T1 construct: whole, on cells; also called FLT3 WT

[2] = target: T2, huFLT3-M227 stably expressed on Ramos cells (human, UniProt P36888 27-993); experiment: FACS on cells
T2 construct: whole, on cells; also called FLT3 Mutant

FACS geometric mean fold change over Jurkat parental [1] | FACS geometric mean fold change over Jurkat parental [2] | Binder
10 to 30 fold | 10 to 30 fold | Polypeptide No. 265 (scFv, V domains shown, scFv) VH: QVQLVQSGAEVKKPGSSVKVSCKASGHTFTSDYMHWVRQAPGQGLEWMGRIIPIFGTADYAQKFQGRVTITADESTSTAYMELSSLRSEDTAVYYCARDDSSGIFDYWGQGTLVTVSS VL: EIVMTQSPATLSVSPGERATLSCRASQSVNSEHLAWYQQKPGQAPRLLIYDTSSRATGIPARFSGSGSGTEFTLTISSLQSEDFAVYYCQQYGSSPVTFGQGTKVEIKR
10 to 30 fold | 10 to 30 fold | Polypeptide No. 259 (scFv, V domains shown, scFv) VH: QVQLVQSGAEVKKPGSSVKVSCKASGYTFTSSEINWVRQAPGQGLEWMGGIHPMFGTTNYAQKFQGRVTITADESTSTAYMELSSLRSEDTAVYYCARARLMVYAPSDYWGQGTLVTVSS VL: not shown
10 to 30 fold | 10 to 30 fold | Polypeptide No. 262 (scFv, V domains shown, scFv) VH: QVQLVQSGAEVKKPGASVKVSCKASGFTFSDYGYYMHWVRQAPGQGLEWMGWMDPSSGHTGYAQRFQGRVTMTRDTSTSTVYMELSSLRSEDTAVYYCAKDIGWGAFDIWGQGTTVTVSS VL: EIVMTQSPATLSVSPGERATLSCRASQRVGNTYLAWYQQKPGQAPRLLIYDVSARASGIPARFSGSGSGTEFTLTISSLQSEDFAVYYCQQYLSPPLTFGGGTKVEIKR
10 to 30 fold | 10 to 30 fold | Polypeptide No. 269 (scFv, V domains shown, scFv) VH: QVQLVQSGAEVKKPGASVKVSCKASGGSFSSYALHWVRQAPGQGLEWMGLINPSGGRTSYAQKFQGRVTMTRDTSTSTVYMELSSLRSEDTAVYYCARDEGYATFDYWGQGTLVTVSS VL: EIVMTQSPATLSVSPGERATLSCRASQSISSSYLAWYQQKPGQAPRLLIYDVSARATGIPARFSGSGSGTEFTLTISSLQSEDFAVYYCQQYYSTPLTFGPGTKVDIKR
> 30 fold | > 30 fold | Polypeptide No. 260 (scFv, V domains shown, scFv) VH: QVQLVQSGAEVKKPGASVKVSCKASGYTFTNYYVHWVRQAPGQGLEWMGMINPSGGSTNYAQKFQGRVTMTRDTSTSTVYMELSSLRSEDTAVYYCARVSGWKRGWFDPWGQGTLVTVSS VL: DIQMTQSPSSLSASVGDRVTITCRSSQSISTYLNWYQQKPGKAPKLLIYGASNLQSGVPSRFSGSGSGTDFTLTISSLQPEDFATYYCQQVISYPITFGGGTKVEIKR

The next lines start with the binder.

Binder | FACS geometric mean fold change over Jurkat parental [1] | FACS geometric mean fold change over Jurkat parental [2]
Polypeptide No. 246 (scFv, V domains shown, scFv) VH: QVQLVQSGAEVKKPGSSVKVSCKASGGTFTSYFMHWVRQAPGQGLEWMGGIIPMFGAPVYAQDFQGRVTITADESTSTAYMELSSLRSEDTAVYYCAAGLDFWSGPDNYYMDVWGKGTTVTVSS VL: DIQMTQSPSSLSASVGDRVTITCQATQDISNYLNWYQQKPGKAPKLLIYGASNLPSGVPSRFSGSGSGTDFTLTISSLQPEDFATYYCQQSYSDLLTFGPGTKVDIKR | 10 to 30 fold | 2 to 10 fold
Polypeptide No. 254 (scFv, V domains shown, scFv) VH: QVQLVQSGAEVKKPGASVKVSCKASGYTFTSHYMHWVRQAPGQGLEWMGWISPYNGNTNYAQKLQGRVTMTRDTSTSTVYMELSSLRSEDTAVYYCARGESNSGWINFDYWGQGTLVTVSS VL: EIVMTQSPATLSVSPGERATLSCRASQSVSSSSLAWYQQKPGQAPRLLIYDTSTRATGIPARFSGSGSGTEFTLTISSLQSEDFAVYYCQQYGTSPITFGQGTRLEIKR | 10 to 30 fold | 2 to 10 fold
Polypeptide No. 253 (scFv, V domains shown, scFv) VH: QVQLVQSGAEVKKPGSSVKVSCKASGYTFTTYFMHWVRQAPGQGLEWMGGIVPVFGTTKYAQKFQGRVTITADESTSTAYMELSSLRSEDTAVYYCASSAVGWFDPWGQGTLVTVSS VL: DIQMTQSPSSLSASVGDRVTITCRASQDISRWLAWYQQKPGKAPKLLIYAASSLQSGVPSRFSGSGSGTDFTLTISSLQPEDFATYYCQQYDNFPLTFGGGTKLEIKR | 2 to 10 fold | 2 to 10 fold
Polypeptide No. 247 (scFv, V domains shown, scFv) VH: QVQLVQSGAEVKKPGASVKVSCKASGGTLMSYAISWVRQAPGQGLEWMGIINPRGGTTRYAQKFQGRVTMTRDTSTSTVYMELSSLRSEDTAVYYCARSEDSGYDYLDYWGQGTLVTVSS VL: EIVMTQSPATLSVSPGERATLSCRGSQSISGNYLAWYQQKPGQAPRLLIYDTSARAAGIPARFSGSGSGTEFTLTISSLQSEDFAVYYCQQYNSYPLTFGGGTKVEIKR | 2 to 10 fold | 2 to 10 fold
Polypeptide No. 244 (scFv, V domains shown, scFv) VH: QVQLVQSGAEVKKPGASVKVSCKASGYTFTSYYMHWVRQAPGQGLEWMGRINPSGGSTSYAQSFQGRVTMTRDTSTSTVYMELSSLRSEDTAVYYCARVPGLYGGAIDYWGQGTLVTVSS VL: DIQMTQSPSSLSASVGDRVTITCRASQDIRNDLGWYQQKPGKAPKLLIYAASSLQSGVPSRFSGSGSGTDFTLTISSLQPEDFATYYCQQSYSSPFTFGQGTKVEIKR | > 30 fold | > 30 fold
Polypeptide No. 257 (scFv, V domains shown, scFv) VH: QVQLVQSGAEVKKPGASVKVSCKASGYTFTNYFMHWVRQAPGQGLEWMGIINPSGGSTSYAQKFQGRVTMTRDTSTSTVYMELSSLRSEDTAVYYCARAHTVYYYGMDVWGQGTMVTVSS VL: DIQMTQSPSSLSASVGDRVTITCRASQSISSWLAWYQQKPGKAPKLLIYAASTLQSGVPSRFSGSGSGTDFTLTISSLQPEDFATYYCQQSYSTPWTFGQGTKLEIKR | 10 to 30 fold | 10 to 30 fold
Polypeptide No. 248 (scFv, V domains shown, scFv) VH: QVQLVQSGAEVKKPGASVKVSCKASGYTFTGYYMHWVRQAPGQGLEWMGVINPNGGSISYAQKFQGRVTMTRDTSTSTVYMELSSLRSEDTAVYYCAREGWFGEDGMDVWGQGTTVTVSS VL: DIQMTQSPSSLSASVGDRVTITCRASQDLDRYLAWYQQKPGKAPKLLIYAASSLQTGVPSRFSGSGSGTDFTLTISSLQPEDFATYYCQQYYSTPYTFGQGTKLEIKR | 2 to 10 fold | 2 to 10 fold
Polypeptide No. 249 (scFv, V domains shown, scFv) VH: QVQLVQSGAEVKKPGASVKVSCKASGYTFTSDGISWVRQAPGQGLEWMGWMNPNSGNAGYAQKFQGRVTMTRDTSTSTVYMELSSLRSEDTAVYYCATAVAGTDAFDIWGQGTMVTVSS VL: EIVMTQSPATLSVSPGERATLSCRASQSIGNNLKAWYQQKPGQAPRLLIYDTSAHTTGIPARFSGSGSGTEFTLTISSLQSEDFAVYYCQHYGNSLTFGQGTKVEIK | 2 to 10 fold | 2 to 10 fold
Polypeptide No. 256 (scFv, V domains shown, scFv) VH: QVQLVQSGAEVKKPGASVKVSCKASGYTFATYYLHWVRQAPGQGLEWMGMINPSGGSTIYAQKFQGRVTMTRDTSTSTVYMELSSLRSEDTAVYYCARSSGYDFFDYWGQGTLVTVSS VL: DIQMTQSPSSLSASVGDRVTITCRASHDINNYLNWYQQKPGKAPKLLIYDASNLETGVPSRFSGSGSGTDFTLTISSLQPEDFATYYCQQADSFPLTFGGGTKVEIKR | > 30 fold | > 30 fold
